The record followed here is publication PMC3665746.

In this experiment the target is palm-Mover-flag (not stated | rat). The experiment can be described thus: plasma membrane recruitment assay in cells (immunofluorescence, line scans); Vero cells co-transfected with palm-Mover-flag and a myc- or GFP-tagged Mover construct; fixed after 24 h, stained against the tags; a cell is positive for recruitment when the fluorescence profiles co-peak in the cell periphery.
Substance Mover-myc (natural protein) had a percent of cells showing recruitment (percent of cells) of 94. Consider Mover-GFP (natural protein), for which the percent of cells showing recruitment (percent of cells) amounted to 61. Under GFP-Mover 34–266 (domain or fragment) stands 71; under GFP-Mover (natural protein), 94. In turn, GFP-Mover 52–266 (domain or fragment) gave a percent of cells showing recruitment (percent of cells) of 86.
